Measurements from patent US12366576B2, “Compositions, assays, and methods for direct modulation of fatty acid metabolism” (Dana-Farber Cancer Institute, Inc., priority 2016, dated 2025).
Bridge positions count the residues as written; N and C are the ends. Square brackets hold non-standard residues; d marks the D form. Ends that are not written are not given here. S5 = C=CCCC[C@](C)(N)C(=O)O

Target: T1, VLCAD (Homo sapiens, UniProt P49748)
T1 construct: 10x His (N); made in house; host or cells: E. coli BL21(DE3), pET19b
T1 sequence (P49748 40-655): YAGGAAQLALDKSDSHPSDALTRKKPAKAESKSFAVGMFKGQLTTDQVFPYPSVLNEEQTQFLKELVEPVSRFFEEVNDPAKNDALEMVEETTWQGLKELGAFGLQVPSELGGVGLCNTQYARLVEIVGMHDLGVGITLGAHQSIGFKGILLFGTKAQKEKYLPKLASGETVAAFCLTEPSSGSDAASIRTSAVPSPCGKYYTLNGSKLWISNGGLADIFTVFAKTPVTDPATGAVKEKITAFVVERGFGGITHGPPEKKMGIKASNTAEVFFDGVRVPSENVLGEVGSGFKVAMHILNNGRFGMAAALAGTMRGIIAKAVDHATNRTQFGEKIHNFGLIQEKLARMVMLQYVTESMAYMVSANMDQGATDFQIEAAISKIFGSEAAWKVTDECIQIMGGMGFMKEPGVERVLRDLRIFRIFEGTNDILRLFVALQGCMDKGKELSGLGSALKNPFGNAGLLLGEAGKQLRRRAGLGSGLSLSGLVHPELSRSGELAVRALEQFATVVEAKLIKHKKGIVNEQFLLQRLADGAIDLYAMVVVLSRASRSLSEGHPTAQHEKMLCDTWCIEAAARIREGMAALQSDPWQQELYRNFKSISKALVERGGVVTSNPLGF
Test: 19F NMR binding study with fluorinated SAHB
Details: fluorinated SAHB 25 μM, VLCAD 0-125 μM
Procedure: To measure the direct binding interaction, ^19F NMR binding studies were conducted using fluorinated analogs of MCL-1 SAHBD. […] Both SAHBs, however, bind MCL-1ΔNΔC, as illustrated by a chemical shift of the peptide NMR peak in both cases (FIG. 15). […] To perform these experiments, N-terminal Btn-PEG analogs of the peptides were immobilized onto streptavidin probes that were then placed into protein solutions at a variety of concentrations to measure ligand-target association.
VLCAD. Mature human VLCAD lacking its cleavable leader sequence (aa 40-655) (NP_000009.1) was subcloned into the pET19b vector (Novagen) using NdeI and XhoI restriction sites. Correct insertion was confirmed by DNA sequencing. […]
To determine binding of SAHBs to VLCAD, fluorinated SAHB (25 μM) and VLCAD (0-125 μM) were mixed together in VLCAD FPLC buffer including 10% D2O to a final volume of 500 μL. […] The extent to which VLCAD bound the peptide was determined by measuring the peak width at half height (ν1/2) of the peptide ^19F signal. […] MCL-1ΔNΔC binding to SAHBs causes a change in the ^19F chemical shift of the peptide resulting in two peptide signals (instead of peak broadening), so extent of binding was quantified by measuring the peak height of “unbound” peptide relative to the bound peptide signal.

## MCL-1 SAHBD: hydrocarbon-stapled peptide mimicking the MCL-1 BH3 domain (Stabilized Alpha-Helix of BCL-2 Domain), SEQ ID NO:19 (RKALETLRRVGDGV[S5]RNH[S5]TAF; staple 15-19)
  19F NMR peptide peak broadening on VLCAD titration: peak broadens, indicative of a direct binding event
